Reference: the DeepSol protein solubility set

Test: soluble on expression in E. coli; label from the status in PepcDB or PDB records

Sequence | soluble on expression in E. coli
MAHHHHHHMHYTGVGIEDVKVRFNEKMRLSASLQRRKSEEVEWSLFWEALNKGDGKMISEALSGASVSGATQQIGMAEACAVLLKGAGKEWHTRIVDDLPFSTVTRCSLLHAALAEKRPDVAAEMLSHARVTRSDLSSLWPLMAKCTWEEVLRMISACPKNAVPYNQALPFILKQGCSLQTLSEHLEHARVLGDADVVAPLLAYAVEMEDWPYVERCVGHLVDIGKITPSAREAFGHLCKLHGPKRVCHRLMEHHVELSSMTIEDLESLRF | not soluble
MAHHHHHHMIRRKLYCSFLFLAILETFKVNQRWSIFISAWYAHEDVDSDYSHSKLYEVLGVHKYATTEEIKKAYRKLSKKYHPDKAKDKNSNNRFNEIAEAYEILGDEEKRKVYDHHGLEAAKNVESNKMDEDPTDHFNIYESFFGGAGGFRREEMKKADSLTLNVEMSLEQLYNGDFFSVIYTRDVNCLRSDDCIMKKKECSGKGYKTVTQQVAPGFIMQNKMRDENCIDRGKAWNPKCSYCPNGMKEEKTIELTLEVEKGMKNNDKIVFEKKGKQEIGYESGDVIFVIQTKKHKVYERKNNDLHQFYEISLKDALIGFSKDIDHISGAPIRINKQTVTFHNEILKVQNKGMPIRDSSKYGDLYIKFLVQFPKYLTEEQKRAISQFL | not soluble
MAHHHHHHMKGVKFRDNFVKLKEEGPRNATTTNFYGSYFLSENEHLFDINEFEKNLEMKMHKNEENLLILEVKNLNVSIANALRRIMLAEVPTIAIEKVNIFQNTGIIADEILCHRLGLIPFKFDADLINFKEEYEKYNHLNCFCFKLHVKFTKKAGSSETCQSIYSRDLKWCPINEHQKARFQKNPPRVVDDNILITKLSNGQEIELICFLEKGIGKTHAKWSPVCTAVYKMYPAFSFNTCEKFTQEEKKDLVNICPKNVFDVEDSDTLVAKNPLNCSSCRVCIEKYPKKISFEKVKNHFIFTIESTGCFSSADIFRKALLILKDKVVSVKEVLEDQTKA | not soluble
MAHHHHHHMKKLHQERGGNPMLAQQARRVLFATSITGQNIDARSIALLLNTAVYFGMESDARVVRECIDFCLKNDKFISLDIMPIVVTACATLQSRDAREVIELQAIKATRNARFLDAKGVTNVISAFSKTGINHEKLFGLLSMRVQTLARVGEFEAAHLVILANAFARLRFREQHVFSAIARRAMSLRERVTVNELVPLINAFSKAGLKDPKLSKRFAGKAMEYVDQMNAEQVALMFQAFAYFGIRYDQLFGVLTNRAVELIDEFNAQYISTTLASFQRIGINNPELFDNLAERALAVVQDHDAKDIALTVTALAHFGLKDEELFKRLASHAASIADQFDPVGLVNTIHAFARTFFLQEDMVVALSERCVYVCRHLDANQVRRLLWSLAKFQVKDPRILTPVFNRCLTLHQDFFSDPMGGEEIEEIFDVFGPSFCPPLYQLYMSRGNSV | not soluble
MAHHHHHHMKNSQMERKKYSVHNLVKLINERNKQNVRNKQPAVGADGTTSINAAGDGLDGETHSNFFHVEKNGQVGRKDKAGFPAEDGEIGGEYDVRDGSVDEEDECDGEAVRDGEAAPDEERADCTDGADTTLPPGGGGEVKLFMFDYNECQNQKCSCKKLYRFKKIKKAPINKKFKGIVLTPFCEKFFSINDKATVENFGLSVIDCSWKSLDLLKKAKFANQRKLPYIIAVNSINYGKPYKLSCLESLAFCLYVCGYNKQCTDILNIYKWSSSFVNLNGELLDMYKLCNTHEEVKSVEDEFIHNSLSEKEKRKEIDQYRVIYEDGYL | soluble
MAHHHHHHMKRGNEVAREMWAPSTWEQRMSLAGQFTTFCRTHEQPINEESRAALLVAILDVAPPTRPQHARMLRSMLEMNRTPLGMAILGLQKLAARSETRQARSLTKEGMDQFIRSRIDWNQRVVFRLACMTASRWSGIAALTPNNATLEADGTIILDWSVAPKTARADPHRAPRFVGIRGRDALDTITLCRTLQENEKLTNVTNAKVERALAPWDATAHSIKRGALRHAAQIVETCNLDPHVISQLAKHVDPFVLPQNTVRYFWKYTTVLTQVLPLVVLM | not soluble
MAHHHHHHMKRWRTANLFTPAEVQHAFAALHRNAEALYSVSGTSSPLGPFVCRRGGARRHRRDHIELPLRHMYEAKTVYEQLPVEVRLICAGLYEAALGYAQEALREPGVSSAARDGILSNLGRNSVLRVLRYPAGSGCRPHVDPGLCTALLVGSAGGLEMSTTDAVLTPFASGPGHNTAHFVSSPTSMRGEAATMPGTLPHWEPVLTAHTGEAVVMAGNMLGAVSGGALPGVLHRVRRDWVAETPRTDGQRSPPLHAACVGGGADAEVDAGSGVFRFNVIVELRPAHAKRWYAATSGQSQLSSASSPSSLA | not soluble
MAHHHHHHMKSFSVTPRVWRRISEKNAEEGYGNDLRYLRLMIESGGCHGYAYKFLFEENSELVADEDVVVAESDVVQLPQPKSQELRTVAEGEGEGDVGESKAKGPPPRLVVDKHSVAKLLSAVVDFHSELKGSAFVVIGNELVDKSCACAMSFSMKKQQQKV | not soluble
MAHHHHHHMKSTQSNLNDEEKVMNNNEKIIKNSYGELLSGCIKNKSSDMNTGDVYPCNDKNTKIVSIKNVYNNLYKTSDSLFFNEENEENRMENCIIRNDGRDMENKFSLYINNAENKDDNNMNNNKNDNINDNINDNINDNINDNINDNINDNINDNINNNINDNINNNIYHNQNNNIYHNIYHNNIINDGVIINEHTSHGDRSSFLNNNKNYNISNYTNHGHNINLNEEKNEKVYMHRNENNEKIHYSNNKDYIEKGNEKSVSSKKGEETYTNNSYNIHLKNMDVKNNERDMCKTMVNNSNIKENKKYSNKTIQQEENTEHEYNIINEEEEEHIKLFKNMNLEEIKNVLSKNDASTLKILLCTDNHLGYKENNSIQKKDSFNSFEEILFIAKKLNVDMILNSGDLFHKNKVSEYTLFKSMYIIRKYCHINENDKEMQQDDNINNNIYPNDLNNDDKSVSKAISEDEFCNMYNVQVKEIKNYKYEYYKNEHTLNNRNNIFDDTNDCMSNKSFIQDKNENLYKDDEDNTNGVKLLQRNDEMNNSDHPGEYLNYRNGKKQIKYYNKLKENNNEFFNKLKICSVNQKFKKLIPFYTIHGNHDYPYSYEYISPLDILNISNLINYIGKNNLNNIVVKPILLNKYKSKISIYAVGWMKDERLYRSFENNEVKFILPSDYKNRINILVLHQNRYIRNAYGNNTKNFIKESFIPKFIDLVIWGHEHFSKPYLEESILNSFYNIQLGSSVRTSICPNEYGDKFIGLLEIKNQRFRFLKINLETVRPFEMKDIKLADYELNFKSESVLKEFLHEQTHAILEKIKNNFSHEIKKYFFFKQLFHTKNKLETNTNKKHQTEYNNINICTKEINSHLNDYQDENLYKSLISISKEDINNFYNNLKNEDFYSSTFIHFAFADPYDTFDLLKIKKEVYEKPLLKIKVEYDDVNIINTQLFGSLFINSIANPSEFLSFYRKKIRQRDIYNNNDNNNDNINDNNNNNDHGKNNTNHDTYNNNYNNNRIDEDEGDKDLHNMEYINEYNKVFDILFDYCDIKNKLLILDENVIMDTIQNFILNTNSSFNFNTNVTSDFTSINSMVDKSFKNKVESIEKQMGNMSAENITDAYLTDVLKKIKNTS | not soluble
MAHHHHHHMKVVEKQLSKKTLKVKKETEKNSTGFMEKKKINKKEKKIYKNNYNNDNIKEEEDILLNQDDFEKKKKKSLENKILLSKKLKEIKLQFKDDDTINNSKKNNWIERLDITSTEYYYLKKTELFGISESREKQLQNITHMNVIQALQKLQELNIKFNRPYDFLADMLKSDIHMEKIRQKILKEHEQAEVRENNKLKRINKKFLKKCGSQKIKSHKEALEKKQNLLKIDQLKKTNNLQNLNVQEFFIKHSKDHDYKAGKITAKKDMKHKKKNFNNKAKKDKGIKNKQIGKKTSINNKRKASSKNSRKSKKMKKKHKHRK | soluble
MAHHHHHHMLLLKRPFLPARVAPLCAQRKVSRLITYYTKSHEYIKINDEDLTELKKKNNVKCKIGISNYGTEKLGEIVYIDISQNINEYVKKGECIATVESVKSVGDVYTPISGQIVDINNEIVDNVNLMNGNSESDGWILELLTNDVNEKEIMSFSEYKKMCEEEEQREATKIQQSERDCLEEKNKNKIFDLNDIKNIEEKTKK | soluble
MAHHHHHHMLQEYTGERCVSYRVNPQRGGCVETVAEVDAQDFFTEPGGLVTSPTTPSTPAGSTSARQARRRVVTTLERILLPDGYPSSVTEDLLPFALWDLAQVLAKNVTATLSTRAVLLGVGVGESKADLTSATLSWMMQDGTRMIGSVVFAPLIPQGLECRAKTWQLVADFTTDIANLLELCAPWLPGGQTTFRVVLVAASVVKALGSVCRNCTRASFTRHFALRNNAADIAAKASTRSSVGSFIGLVLGVAVAYIVPATSRSLNLVVFALGSVLHIFASYRSVRGVQLKHLNAPRLEWCLVQYSLFEAKVLIASKKDSGPLSVMPILDVSPRSANAAERLLILPSLRAVPPPSDSFYDSVRGFLCRYCFPPTLTLRIHCGASLFRLLQHQRGLTTRCKHELVQQVESALASRGIALLVDDVDMTYYVILPEYFTVEGVPAMWVRYKRQYGDDLTCMEAKQRQSAAARAAQRRQDGAASLSPSGAAVAAPDAGHGLDEAGRRAAQAEAELERLQKERVVVPPHILPLAYRQLWAYFYAFMHYRAVRLRREGPLTHAKDVLEGLHKNRSLECQRLHIITALRADGTLEAGHSDASDVPHSPAQFEEITSPASTTSDVPLERRVVPALATRAGGDDGDDGDNTAAPSYDGLHPQFIEFVRALRMTGWELDELLVGNEGYTTVVHYL | not soluble
MAHHHHHHMLSTTDGTTSTLSPERTAVIELHTSASYARDTVHRLREYCNSLEATRQQLRRRLSSVPNSHNVSAVALSRARSPSSLSHLHGQAPLPPLAAAAPTLSRPFFTSEYIDPEVDATLQDVDETTALETMIVLHEDGAGTITKRMIDGSQSCISSLAVHSSSPQSQRPAATTASLLAIHSPTPVAENGTSWARQYSPLALRRMKPQQLLSHYLRDTHNAMVIADEPRAHRHSSSLCTNASSSCCVPVVRLGKPMRSASASLWNASDVNMHFPHAVPLAPSLSESPPKQAPSTGRFVVPPATPLDESDAEQLPPQSLPPRPNNHKTTAGASVFVSLAGCTAPGQFAGLQTGVTSSTMGASSRVNSQRFAMKGLRESVSPKEHGTRSRSKSSRSSAGSEALVSGKQTTSSASAAAASAPLWDPTRHSLQSPSPVMLSTSTETSAASALVVSDRLGTPVTTSGCEVGVPGASNDSVHRPRPIGTSLITAVASTSFSPLSAPAPDSEEPQPPAETAVQPHIRSPLRRLHLEAHAVRCDHASSGNRRDLYTDSLHVSGSASPAPSTPRNSEENSGDRCKRSNTTAFLDEEKREASAVSTAGACRVSAQLPVLESDVVSPDGADSFHSKDAAVSPRRSSERTVNFLSPDQVEGSLLPQPQRPTSQRLISPSPPRGVAADSNEQNPRDGNTDLKAVSAESIPKDADIDSTSPRRHLVLPQHRSPVAPPRVVIISKDDESPSPARSSLSRSLHSLPSTLSDGHCDDASDDGDDEDGSLWYSEQF | not soluble
MAHHHHHHMLVKENHSVILYADEENVELVKLTSDGVLTNRKGTFLHKNIIGKKYGSKIYDSACRNYIYVLRRTPEFVAISLKKKTQTLYEHDISFICLLCNALPNKKIIEAGTGTGCLTYALASCVLPKGVIHTFEYNEERYEEVRNEFSNFENVKNNIKFHHKDVISDSFVEFQPGEIDSVFLDMPNPWLCVPHVKKVLKERGVFVIFLPCIEQVYKIIEALEENQFCEIVTYELVNKSWEIIRNGGPAGGCKRARQFSLGGAKETSDPLEGVKETGDPLEGVKETGGPLEGVKETGDPLEGVKETGDPLERAKQSNDPLERAKQSSDPSNEQKNCPTPAQSQNPTYRLRQKENKTHTGYLIFSKKELSDEHEQIEIELKGV | not soluble
